Results as given in patent publication US20190002527A1 (CHILDREN S MEDICAL CENTER, published 2019).

Tests used:
[1] = target: T1, CD98 (cluster of differentiation 98) (human, UniProt Q01650 1-507); experiment: co-IP from transfected HEK293T cells, IP anti-CD98, blot anti-myc
T1 construct: Endogenous CD98 in lysates of human HUVE or HEK293T cells; also called LAT1; transmembrane amino acid transporter CD98
Source text: (§1) FIG. 2A depicts a schematic representation of TRPV4. […] The right panel gives the Western blotting for the expression of each transgene in total cell lysates of respective transfectants.

[2] = target: T2, TRPV4 (transient receptor potential vanilloid 4) (human, UniProt Q9HBA0 1-871); experiment: co-IP from transfected HEK293T cells, IP anti-TRPV4, blot anti-HA
T2 construct: Endogenous TRPV4 in lysates of human HUVE or HEK293T cells, co-immunoprecipitation; also called TRPV4 membrane ion channel
Source text: as §1

β1-integrin = target: T3, β1-integrin (human, UniProt P05556 21-798); experiment: co-IP from transfected HEK293T cells, IP anti-β1-integrin, blot anti-HA
T3 construct: Endogenous β1-integrin in lysates of human HUVE or HEK293T cells; No signal peptide limits are stated; also called B1-integrin; ITGB1
Source text: as §1

T1 sequence (Q01650 whole entry): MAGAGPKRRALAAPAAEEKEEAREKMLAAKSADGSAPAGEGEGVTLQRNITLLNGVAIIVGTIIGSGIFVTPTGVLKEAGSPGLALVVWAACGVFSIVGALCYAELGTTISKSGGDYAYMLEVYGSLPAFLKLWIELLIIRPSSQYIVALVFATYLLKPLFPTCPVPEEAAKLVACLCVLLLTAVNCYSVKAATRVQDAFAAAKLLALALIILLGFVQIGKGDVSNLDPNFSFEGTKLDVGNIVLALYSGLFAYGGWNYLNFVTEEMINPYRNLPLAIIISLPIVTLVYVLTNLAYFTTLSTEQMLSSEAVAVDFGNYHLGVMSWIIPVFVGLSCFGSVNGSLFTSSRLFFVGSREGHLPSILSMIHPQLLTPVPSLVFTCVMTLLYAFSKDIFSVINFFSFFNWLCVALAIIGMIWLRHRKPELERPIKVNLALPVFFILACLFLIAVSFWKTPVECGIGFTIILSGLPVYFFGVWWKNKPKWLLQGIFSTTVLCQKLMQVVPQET
T3 sequence (P05556 21-798 limits assumed): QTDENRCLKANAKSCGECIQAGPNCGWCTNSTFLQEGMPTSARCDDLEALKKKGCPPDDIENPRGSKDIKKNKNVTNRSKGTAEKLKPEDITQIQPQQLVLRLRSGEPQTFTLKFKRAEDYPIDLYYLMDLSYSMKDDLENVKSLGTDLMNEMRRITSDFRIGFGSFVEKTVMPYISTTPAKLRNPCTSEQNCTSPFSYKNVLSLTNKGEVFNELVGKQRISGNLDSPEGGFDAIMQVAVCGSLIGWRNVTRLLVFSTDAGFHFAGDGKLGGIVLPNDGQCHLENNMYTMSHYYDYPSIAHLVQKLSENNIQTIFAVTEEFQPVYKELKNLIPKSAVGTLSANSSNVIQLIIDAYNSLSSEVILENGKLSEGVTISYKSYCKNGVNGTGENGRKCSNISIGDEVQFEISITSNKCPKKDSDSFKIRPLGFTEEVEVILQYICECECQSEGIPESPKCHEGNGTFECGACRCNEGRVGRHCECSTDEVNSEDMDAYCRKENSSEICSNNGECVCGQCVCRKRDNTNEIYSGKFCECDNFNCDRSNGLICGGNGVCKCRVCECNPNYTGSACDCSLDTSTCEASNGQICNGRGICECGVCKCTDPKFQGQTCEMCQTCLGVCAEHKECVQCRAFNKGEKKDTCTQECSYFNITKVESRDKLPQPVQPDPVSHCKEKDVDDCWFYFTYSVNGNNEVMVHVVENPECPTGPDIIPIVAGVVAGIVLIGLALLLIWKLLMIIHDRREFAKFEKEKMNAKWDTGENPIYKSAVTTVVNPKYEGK

B1: myc-linked TRPV4 lacking all ankyrin repeat domains (ΔAR1-3) (other)
chain: MADSSEGPRAGPGEVAELPGDESGTPGGEAFPLSSLANLFEGEDGSLSPSPADASRPAGPGDGRPNLRMKFQGAFRKGVPNPIDLLESTLYESSVVPGPKKAPMDSLFDYGTYRHHSSDNKRWRKKIIEKQPQSPKAPAPQPPPILKVFNRPILFDIVSRGSTADLDGLLPFLLTHKKRLTDEEFREPSTGKTCLPKALLNLSNGRNDTIPVLLDIAERTGNMREFINSPFRDIYYQARGRFFQPKDEGGYFYMRRQDSRGNTVLHALVAIADNTRENTKFVTKMYDLLLLKCARLFPDSNLEAVLNNTRHLSRKFKDWAYGPVYSSLYDLSSLDTCGEEASVLEILVYNSKIENRHEMLAVEPINELLRDKWRKFGAVSFYINVVSYLCAMVIFTLTAYYQPLEGTPPYPYRTTVDYLRLAGEVITLFTGVLFFFTNIKDLFMKKCPGVNSLFIDGSFQLLYFIYSVLVIVSAALYLAGIEAYLAVMVFALVLGWMNALYFTRGLKLTGTYSIMIQKILFKDLFRFLLVYLLFMIGYASALVSLLNPCANMKVCNEDQTNCTVPTYPSCRDSETFSTFLLDLFKLTIGMGDLEMLSSTKYPVVFIILLVTYIILTFVLLLNMLIALMGETVGQVSKESKHIWKLQWATTILDIERSFPVFLRKAFRSGEMVTVGKSSDGTPDRRWCFRVDEVNWSHWNQNLGIINEDPGKNETYQYYGFSHTVGRLRRDRWSSVVPRVVELNKNSNPDEVVVPLDSMGNPRCDGHQQGYPRKWRTDDAPL
notes: also called TRPV4 lacking all three ankyrin repeat domains; not shown: myc tag
Q: Does B1 bind [1]?
A: no binding

B2: HA-linked CD98 that lacks high homology domain (ΔHH) (other)
chain: MELQPPEASIAVVSIPRQLPGSHSEAGVQGLSAGDDSETGSDCVTQAGLQLLASSDPPALASKNAEVTVETGFHHVSQADIEFLTSIDPTASASGSAGITGTMSQDTEVDMKEVELNELEPEKQPMNAASGAAMSLAGAEKNGLVKIKVAEDEAEAAAACRELPAQKWWHTGALYRIGDLQAFQGHGAGNLAGLKGRLDYLSSLKVKGLVLGPIHKNQKDDVAQTDLLQIDPNFGSKEDFDSLLQSAKKKSIRVILDLTPNYRGENSWFSTQVDTVATKVKDALEFWLQAGVDGFQVRDIENLKDASSFLAEWQNITKGFSEDRLLIAGTNSSDLQQILSLLESNKDLLLTSSYLSDSGSTGEHTKSLVTQYLNATGNRWCSWSLSQARLLTSFLPAQLLRLYQLMLFTLPGTPVFSYGDEIGLDAAALPGQPMEAPVMLWDESSFPDIPGAVSANMTVKGQSEDPGSLLSLFRRLSDQRSKERSLLHGDFHAFSAGPGLFSYIRHWDQNERFLVVLNFGDVGLSAGLQASDLPASASLPAKADLLLSTQPGREEGSPLELERLKLEPHEGLLLRFPYAA
notes: Built from 'deletion of a 50 amino acid (160-210aa) high homology domain'; also called CD98 lacking the high homology domain; not shown: HA tag
Q: Does B2 bind [2]?
A: no binding

Q: Does B2 bind (β1-integrin)?
A: no binding
